From PMC6048507
Where two headings read alike, the source gives them in different places.

Legend:
[1] = target: mavirus major capsid protein truncated at the C terminus (MCPΔC, res. 1–516), purified capsomer (mavirus)
[2] = target: mavirus major capsid protein truncated at the C terminus (MCPΔC, res. 1–516), purified capsomer (mavirus); assay: crystal structure
[3] = target: mavirus cysteine protease (MVP) (mavirus)
[4] = target: mavirus penton protein (minor capsid protein, MV17), purified (mavirus); assay: crystal structure
[5] = target: mavirus penton protein (minor capsid protein, MV17), purified (mavirus)
[6] = target: mavirus major capsid protein, full-length (flMCP), purified capsomer (mavirus); assay: crystal structure
[7] = target: mavirus major capsid protein, full-length (flMCP), purified capsomer (mavirus)

For “mavirus major capsid protein truncated at the C terminus (MCPΔC, res. 1–516), purified capsomer (domain or fragment)”, the stoichiometry N [1] was 3 and the stoichiometry N [2] was 3.

In the case of “mavirus cysteine protease (MVP) (enzyme)”, the stoichiometry N [3] is reported as 2.

“mavirus penton protein (minor capsid protein, MV17), purified (natural protein)” gave a stoichiometry N [4] of 5 and a stoichiometry N [5] of 5.

In the case of “mavirus major capsid protein, full-length (flMCP), purified capsomer (natural protein)”, the stoichiometry N [6] is reported as 3 and the stoichiometry N [7] is reported as 3.
